{
  "source": "paper PMC8074050",
  "target": "nominally empty recombinant adeno-associated virus 5 capsid (adeno-associated virus 5 (recombinant, rAAV5)) (UniProt Q9YIJ1)",
  "test": "SEC-MALS; Superose 6 Increase (10/300), phosphate-buffered saline as mobile phase, 0.8 mL/min, column and detectors at 30 °C, samples kept at 4 °C before injection; RI, UV and RALS/LALS detection; whole capsid with whole capsid (dimer of capsids)",
  "data": [
    {"substance": "nominally empty recombinant adeno-associated virus 5 capsid (from UniProt Q9YIJ1 1-724) (complex)", "values": [
      {"measurement": "fraction of sample (%) in the dimer peak", "result": 7.2, "unit": "%"},
      {"measurement": "stoichiometry N", "result": 2}
    ]}
  ]
}
